{"source": "paper PMC3433420", "about": "“Comprehensive Binary Interaction Mapping of SH2 Domains via Fluorescence Polarization Reveals Novel Functional Diversification of ErbB Receptors” (PLoS ONE, 2012)", "assay_in_all_cases": "peptide or protein array; SH2/PTB proteins spotted on aldehyde slides, rhodamine peptide titrated in buffer B (20 mM HEPES, 100 mM KCl, 0.1% Tween-20, 5 mM DTT, pH 7.8), 1 h at room temperature; replicate assays", "conditions_in_all_cases": "both partners purified", "key": {"DAPP1 SH2 domain": {"biological_target": "T1, DAPP1 SH2 domain (human, UniProt Q9UN19 35-129)", "T1 construct": "DAPP1, human; source: bacterial expression, purified", "T1 sequence (looked up)": "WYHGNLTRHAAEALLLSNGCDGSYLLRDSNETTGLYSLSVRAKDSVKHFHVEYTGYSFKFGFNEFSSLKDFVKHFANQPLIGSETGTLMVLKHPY"}, "GRB7 SH2 domain": {"biological_target": "T2, GRB7 SH2 domain (human, UniProt Q14451 431-527)", "T2 construct": "GRB7, human; source: bacterial expression, purified", "T2 sequence (Q14451 431-527)": "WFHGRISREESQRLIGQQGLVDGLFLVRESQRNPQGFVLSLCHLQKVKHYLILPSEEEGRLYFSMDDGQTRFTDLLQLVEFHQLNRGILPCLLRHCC"}, "MATK SH2 domain": {"biological_target": "T3, MATK SH2 domain (human, UniProt P42679 122-211)", "T3 construct": "MATK, human; source: bacterial expression, purified", "T3 sequence (looked up)": "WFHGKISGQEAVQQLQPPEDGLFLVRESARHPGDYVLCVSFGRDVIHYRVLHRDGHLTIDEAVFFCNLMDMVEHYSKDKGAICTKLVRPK"}, "[1]": {"biological_target": "T4, PTPN11 tandem SH2 domains (human)", "T4 construct": "PTPN11, human; also called PTPN11-NC; source: bacterial expression, purified", "T4 sequence (Q06124 whole entry, looked up)": "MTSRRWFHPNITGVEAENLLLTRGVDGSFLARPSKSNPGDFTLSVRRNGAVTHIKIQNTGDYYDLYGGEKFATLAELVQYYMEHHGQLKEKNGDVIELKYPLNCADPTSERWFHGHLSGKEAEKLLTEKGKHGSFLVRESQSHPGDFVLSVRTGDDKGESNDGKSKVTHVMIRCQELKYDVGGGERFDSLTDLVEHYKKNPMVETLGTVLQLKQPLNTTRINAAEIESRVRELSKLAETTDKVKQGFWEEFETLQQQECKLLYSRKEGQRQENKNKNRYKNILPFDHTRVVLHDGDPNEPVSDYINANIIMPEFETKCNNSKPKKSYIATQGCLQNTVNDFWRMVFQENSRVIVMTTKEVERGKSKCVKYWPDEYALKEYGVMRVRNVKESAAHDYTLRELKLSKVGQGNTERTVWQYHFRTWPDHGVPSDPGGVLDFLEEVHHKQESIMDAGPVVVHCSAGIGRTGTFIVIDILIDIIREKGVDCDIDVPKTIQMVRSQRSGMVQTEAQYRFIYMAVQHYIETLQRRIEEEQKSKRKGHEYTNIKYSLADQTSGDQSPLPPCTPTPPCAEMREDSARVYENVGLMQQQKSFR"}, "PTPN6 tandem SH2 domains": {"biological_target": "T5, PTPN6 tandem SH2 domains (human)", "T5 construct": "PTPN6, human; also called PTPN6-NC; source: bacterial expression, purified"}, "SH2B3 SH2 domain": {"biological_target": "T6, SH2B3 SH2 domain (human, UniProt Q9UQQ2 364-462)", "T6 construct": "SH2B3, human; source: bacterial expression, purified", "T6 sequence (Q9UQQ2 364-462)": "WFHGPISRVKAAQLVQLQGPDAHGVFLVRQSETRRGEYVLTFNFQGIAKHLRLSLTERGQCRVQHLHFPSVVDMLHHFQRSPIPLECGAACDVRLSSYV"}, "BLNK SH2 domain": {"biological_target": "T7, BLNK SH2 domain (human, UniProt Q8WV28 346-453)", "T7 construct": "BLNK, human; source: bacterial expression, purified", "T7 sequence (looked up)": "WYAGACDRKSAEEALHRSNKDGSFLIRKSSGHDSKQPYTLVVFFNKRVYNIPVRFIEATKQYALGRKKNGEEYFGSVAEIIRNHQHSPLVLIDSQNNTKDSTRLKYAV"}, "BTK SH2 domain": {"biological_target": "T8, BTK SH2 domain (human, UniProt Q06187 281-377)", "T8 construct": "BTK, human; source: bacterial expression, purified", "T8 sequence (Q06187 281-377)": "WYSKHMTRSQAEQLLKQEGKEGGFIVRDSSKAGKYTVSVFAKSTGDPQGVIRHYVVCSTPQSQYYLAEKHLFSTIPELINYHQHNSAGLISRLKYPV"}, "VAV1 SH2 domain": {"biological_target": "T9, VAV1 SH2 domain (human, UniProt P15498 671-765)", "T9 construct": "VAV1, human; source: bacterial expression, purified", "T9 sequence (looked up)": "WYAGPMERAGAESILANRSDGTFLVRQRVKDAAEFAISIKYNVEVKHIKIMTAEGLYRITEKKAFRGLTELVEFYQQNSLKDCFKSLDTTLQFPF"}, "ZAP70 tandem SH2 domains": {"biological_target": "T10, ZAP70 tandem SH2 domains (human)", "T10 construct": "ZAP70, human; also called ZAP70-NC; source: bacterial expression, purified", "T10 sequence (P43403 whole entry, the tested form may be a part)": "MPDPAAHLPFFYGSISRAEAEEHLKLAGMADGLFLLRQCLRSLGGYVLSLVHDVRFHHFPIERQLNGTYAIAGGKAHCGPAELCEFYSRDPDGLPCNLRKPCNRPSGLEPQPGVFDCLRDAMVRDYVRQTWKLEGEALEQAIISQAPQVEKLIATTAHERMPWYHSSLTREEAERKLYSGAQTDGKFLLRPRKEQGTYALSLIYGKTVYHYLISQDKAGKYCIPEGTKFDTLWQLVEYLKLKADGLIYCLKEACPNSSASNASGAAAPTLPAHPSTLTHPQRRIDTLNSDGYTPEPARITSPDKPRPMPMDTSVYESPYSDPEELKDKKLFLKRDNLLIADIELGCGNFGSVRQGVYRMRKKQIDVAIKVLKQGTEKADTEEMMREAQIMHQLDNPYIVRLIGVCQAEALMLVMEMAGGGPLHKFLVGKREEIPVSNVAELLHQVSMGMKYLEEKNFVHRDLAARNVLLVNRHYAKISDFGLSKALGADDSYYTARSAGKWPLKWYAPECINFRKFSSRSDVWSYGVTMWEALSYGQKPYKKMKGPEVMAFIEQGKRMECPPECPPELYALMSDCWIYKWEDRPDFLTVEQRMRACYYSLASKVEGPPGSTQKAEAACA"}, "SHC1 domain construct": {"biological_target": "T11, SHC1 domain construct (human)", "T11 chain": "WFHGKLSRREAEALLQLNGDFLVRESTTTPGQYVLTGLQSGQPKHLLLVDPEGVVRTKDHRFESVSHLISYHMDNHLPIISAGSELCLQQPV"}}, "note": "Where “and” joins values, the source holds several entries; their conditions need not be identical. Equal entries are not always repeated. Non-standard residues stand in square brackets, D forms with d. No end group written: not given here. pY = N[C@@H](Cc1ccc(OP(=O)(O)O)cc1)C(=O)O; Rhodamine = not defined here", "data": [{"binder": "Rhodamine-ETDG[pY]VAPLTCSD (reading uncertain)", "note": "[ErbB2 pY1127 phosphopeptide, rhodamine-labelled, for protein microarrays]", "values": [{"measurement": "Kd", "setting": "DAPP1 SH2 domain", "value": 2670, "unit": "nM"}, {"measurement": "Kd", "setting": "GRB7 SH2 domain", "value": "1600 nM and 2530 nM"}, {"measurement": "Kd", "setting": "MATK SH2 domain", "value": 4400, "unit": "nM"}, {"measurement": "Kd", "setting": "[1]", "value": "1150 nM and 1530 nM"}, {"measurement": "Kd", "setting": "PTPN6 tandem SH2 domains", "value": 1620, "unit": "nM"}, {"measurement": "Kd", "setting": "SH2B3 SH2 domain", "value": "1380 nM and 2300 nM"}, {"measurement": "Kd", "setting": "BLNK SH2 domain", "value": "1950 nM and 1250 nM"}, {"measurement": "Kd", "setting": "BTK SH2 domain", "value": "4710 nM and 5890 nM"}, {"measurement": "Kd", "setting": "VAV1 SH2 domain", "value": "186 nM and 91.6 nM"}, {"measurement": "Kd", "setting": "ZAP70 tandem SH2 domains", "value": "2010 nM and 2410 nM"}, {"measurement": "Kd", "setting": "SHC1 domain construct", "value": "820 nM and 978 nM"}]}]}
